The target in data set [1] is proFIX-Fc (FIX-Fc retaining the FIX propeptide; dimer or monomer form not given).
In data set [2] the target is proFIX-Fc monomer-dimer hybrid (FIX-Fc monomer retaining the propeptide).
Data set [3] concerns the target N297A version of FIX-Fc retaining the propeptide.

B1: human PC5 (PC5A), expressed from pSYN-PC5-003 (protein)
chain: RVYTNHWAVKIAGGFPEANRIASKYGFINIGQIGALKDYYHFYHSRTIKRSVISSRGTHSFISMEPKVEWIQQQVVKKRTKRDYDFSRAQSTYFNDPKWPSMWYMHCSDNTHPCQSDMNIEGAWKRGYTGKNIVVTILDDGIERTHPDLMQNYDALASCDVNGNDLDPMPRYDASNENKHGTRCAGEVAAAANNSHCTVGIAFNAKIGGVRMLDGDVTDMVEAKSVSFNPQHVHIYSASWGPDDDGKTVDGPAPLTRQAFENGVRMGRRGLGSVFVWASGNGGRSKDHCSCDGYTNSIYTISISSTAESGKKPWYLEECSSTLATTYSSGESYDKKIITTDLRQRCTDNHTGTSASAPMAAGIIALALEANPFLTWRDVQHVIVRTSRAGHLNANDWKTNAAGFKVSHLYGFGLMDAEAMVMEAEKWTTVPRQHVCVESTDRQIKTIRPNSAVRSIYKASGCSDNPNRHVNYLEHVVVRITITHPRRGDLAIYLTSPSGTRSQLLANRLFDHSMEGFKNWEFMTIHCWGERAAGDWVLEVYDTPSQLRNFKTPGKLKEWSLVLYGTSVQPYSPTNEFPKVERFRYSRVEDPTDDYGTEDYAGPCDPECSEVGCDGPGPDHCNDCLHYYYKLKNNTRICVSSCPPGHYHADKKRCRKCAPNCESCFGSHGDQCMSCKYGYFLNEETNSCVTHCPDGSYQDTKKNLCRKCSENCKTCTEFHNCTECRDGLSLQGSRCSVSCEDGRYFNGQDCQPCHRFCATCAGAGADGCINCTEGYFMEDGRCVQSCSISYYFDHSSENGYKSCKKCDISCLTCNGPGFKNCTSCPSGYLLDLGMCQMGAICKDATEESWAEGGFCMLVKKNNLCQRKVLQQLCCKTCTFQG
As for B1, in data set [1], the “Propeptide Processing (Western blotting), CHO, stable transfection” value is reported as “processes”; the “Propeptide Processing (Western blotting), CHO, transient transfection” value is on record as “processes”; the “Propeptide Processing (Western blotting), HEK, stable transfection” value is “processes”; the “Propeptide Processing (Western blotting), HEK, transient transfection” value is “processes”. Moreover, the “peptide mapping (tryptic digest, LC/MS) for the propeptide indicator peptide (PIP), HEK stable line” value in data set [2] is given as “undetectable in purified FIX-Fc monomer cotransfected with PC5”.

B2: PC7-SOL (soluble form of PC7, amino acids 1-663) (protein)
chain: LAGTGGPDGQGTGGPSWAVHLESLEGDGEEETLEQQADALAQAAGLVNAGRIGELQGHYLFVQPAGHRPALEVEAIRQQVEAVLAGHEAVRWHSEQRLLRRAKRSVHFNDPKYPQQWHLNNRRSPGRDINVTGVWERNVTGRGVTVVVVDDGVEHTIQDIAPNYSPEGSYDLNSNDPDPMPHPDVENGNHHGTRCAGEIAAVPNNSFCAVGVAYGSRIAGIRVLDGPLTDSMEAVAFNKHYQINDIYSCSWGPDDDGKTVDGPHQLGKAALQHGVIAGRQGFGSIFVVASGNGGQHNDNCNYDGYANSIYTVTIGAVDEEGRMPFYAEECASMLAVTFSGGDKMLRSIVTTDWDLQKGTGCTEGHTGTSAAAPLAAGMIALMLQVRPCLTWRDVQHIIVFTATRYEDRRAEWVTNEAGFSHSHQHGFGLLNAWRLVNAAKIWTSVPYLASYVSPVLKENKAIPQSPRSLEVLWNVSRMDLEMSGLKTLEHVAVTVSITHPRRGSLELKLFCPSGMMSLIGAPRSMDSDPNGFNDWTFSTVRCWGERARGTYRLVIRDVGDESFQVGILRQWQLTLYGSVWSAVDIRDRQRLLESAMSGKYLHDDFALPCPPGLKIPEEDGYTITPN
Regarding B2, in data set [3], the “Propeptide Processing (Western blotting), HEK, stable transfection” value was “does not fully process”. Besides, in data set [1], the “Propeptide Processing (Western blotting), CHO, stable transfection” value is recorded as “does not fully process”; the “Propeptide Processing (Western blotting), CHO, transient transfection” value is “processes”; the “Propeptide Processing (Western blotting), HEK, transient transfection” value was “does not fully process”; the “peptide mapping (tryptic digest, LC/MS) for the propeptide indicator peptide (PIP), CHO stable line” value is given as “ProFIX-Fc was also found in CHO FIX-Fc protein that was cotransfected with PC7, although possibly at lower levels as indicated in the UV trace”.

B3: KEX2-SOL (soluble form of the yeast endoprotease KEX2, amino acids 1-675) (protein)
chain: LVSSQQIPLKDHTSRQYFAVESNETLSRLEEMHPNWKYEHDVRGLPNHYVFSKELLKLGKRSSLEELQGDNNDHILSVHDLFPRNDLFKRLPVPAPPMDSSLLPVKEAEDKLSINDPLFERQWHLVNPSFPGSDINVLDLWYNNITGAGVVAAIVDDGLDYENEDLKDNFCAEGSWDFNDNTNLPKPRLSDDYHGTRCAGEIAAKKGNNFCGVGVGYNAKISGIRILSGDITTEDEAASLIYGLDVNDIYSCSWGPADDGRHLQGPSDLVKKALVKGVTEGRDSKGAIYVFASGNGGTRGDNCNYDGYTNSIYSITIGAIDHKDLHPPYSEGCSAVMAVTYSSGSGEYIHSSDINGRCSNSHGGTSAAAPLAAGVYTLLLEANPNLTWRDVQYLSILSAVGLEKNADGDWRDSAMGKKYSHRYGFGKIDAHKLIEMSKTWENVNAQTWFYLPTLYVSQSTNSTEETLESVITISEKSLQDANFKRIEHVTVTVDIDTEIRGTTTVDLISPAGIISNLGVVRPRDVSSEGFKDWTFMSVAHWGENGVGDWKIKVKTTENGHRIDFHSWRLKLFGESIDSSKTETFVFGNDKEEVEPAATESTVSQYSASSTSISISATSTSSISIGVETSAIPQTTTASTDPDSDPNTPKKLSSPRQ
Regarding B3, the “propeptide processing, Fc and propeptide Western blots, HEK 293 transient transfection (FIG. 8 lane 4, N297A Fc)” value in data set [3] is “FIX-Fc cotransfected with KEX2-SOL is not processed, as can be seen by the presence of propeptide in this material (lanes 3 and 4, bands present on both blots)”. In data set [1], the “Propeptide Processing (Western blotting), CHO, transient transfection” value is recorded as “processes (cryptic cleavage)” and the “Propeptide Processing (Western blotting), HEK, transient transfection” value is on record as “does not fully process”.

The values are drawn from patent US20070259402.
